Laboratory results: article PMC8457375 (Chemical Science, 2021)

T1: FADD^DD (UniProt Q13158 97-181)
T1 sequence: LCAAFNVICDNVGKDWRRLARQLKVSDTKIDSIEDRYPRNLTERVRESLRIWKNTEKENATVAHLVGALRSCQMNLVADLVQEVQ


Key:
FADD^DD [1] = target: FADD^DD (UniProt Q13158)
FADD^DD [2] = target: FADD^DD (UniProt Q13158); assay: ITC
FADD^DD [3] = target: T1, FADD^DD; assay: ITC
FADD^DD [4] = target: T1, FADD^DD; assay: cell-based or functional assay

Molecule | Km for FADD^DD, glycosylation kinetics (FADD^DD [1]) | Kd (FADD^DD [2]) | fold by which the Kd of NleB1^EHEC is better (FADD^DD [3]) | Km for FADD^DD, glycosylation kinetics, fold worse than that of NleB1^EHEC (FADD^DD [4])
NleB1^EHEC (enzyme) | 13 µM | 200 nM | – | –
N302Y^SseK2 (enzyme) MARFNAAFTRIKIMFSRIRGLISCQSNTQTIAPTLSPPSSGHVSFAGIDYPLLPLNHQTPLVFQWFERNPDRFGQNEIPIINTQKNPYLNNIINAAIIEKERIIGIFVDGDFSKGQRKALGKLEQNYRNIKVIYNSDLNYSMYDKKLTTIYLENITKLEAQSASERDEVLLNGVKKSLEDVLKNNPEETLISSHNKDKGHLWFDFYRNLFLLKGSDAFLEAGKPGCHHLQPGGGCIYLDADMLLTDKLGTLYLPDGIAIHVSRKDNHVSLENGIIAVNRSEHPALIKGLEIMHSKPYGDPYYDWLSKGLRHYFDGSHIQDYDAFCDFIEFKHENIIMNTSSLTASSWR | – | – | ~472 fold | –
S286Y^SseK1 (enzyme) MIPPLNRYVPALSKNELVKTVTNRDIQFTSFNGKDYPLCFLDEKTPLLFQWFERNPARFGKNDIPIINTEKNPYLNNIIKAATIEKERLIGIFVDGDFFPGQKDAFSKLEYDYENIKVIYRNDIDFSMYDKKLSEIYMENISKQESMPEEKRDCHLLQLLKKELSDIQEGNDSLIKSYLLDKGHGWFDFYRNMAMLKAGQLFLEADKVGCYDLSTNSGCIYLDADMIITEKLGGIYIPDGIAVHVERIDGRASMENGIIAVDRNNHPALLAGLEIMHTKFDADPYYDGVCNGIRKHFNYSLNEDYNSFCDFIEFKHDNIIMNTSQFTQSSWARHVQ | – | – | ~6 fold | 4.4 fold
